Measurements taken from the supplement of paper PMC9170038.

System: MS2 coat protein
Experiment: apparent KD of MS2 coat protein; designed switch direction (-1 OFF switch, 1 ON switch): 1; higher = weaker reporter binding
Method in brief: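 RNA switches sharing common flanks were transcribed by stalled E. coli RNA polymerase on Illumina chips. A doubling series of SNAP-549-labelled MS2 coat protein, from 0.7 or 1.5 nM to 3 µM, was applied in Tris-HCl pH 7.5 buffer with KCl, MgCl2, BSA, DTT, tRNA and Tween-20. Each step lasted 0.8–1.5 h at the bottom of the series and 10–20 min at the top. Normalised cluster fluorescence was curve-fitted, giving apparent KD as the per-design median over clusters.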

[1] = input ligand: microRNA oligo, concentration not stated
[2] = Eterna round: R95, input ligand: FMN 200 uM
[3] = Eterna round: R95, input ligand: microRNA oligo, concentration not stated
[4] = Eterna round: R95, input ligand: none

Row | Sequence | apparent KD of MS2 coat protein (input ligand: FMN 200 uM) [nM] | apparent KD of MS2 coat protein [1] [nM] | apparent KD of MS2 coat protein (input ligand: none) [nM] | apparent KD of MS2 coat protein [2] [nM] | apparent KD of MS2 coat protein [3] [nM] | apparent KD of MS2 coat protein [4] [nM]
1 | GCUCGUAUGAUGACCGACAUGAGGAUCACCCAUGUGUGUCGGUAGGAUAUCUAUAUUAAGGAUAUAGAGAAGGGCCCAACGAGC [SameState NG3 #18] (Eterna round: R96, puzzle: Same State NG 3) | 114 | 103 | 158 | – | – | –
2 | GCUGCAAUAAACGCCUACAUGAGGAUCACCCAUGUAUGUAGGCAGGAUAUCGUAUGCAAAGCAUACGAGAAGGGCUGUAGUAGC [Mat - Same State NG 3 - JL Mod - D39] (Eterna round: R96, puzzle: Same State NG 3) | 65.3 | 97.3 | 112 | – | – | –
3 | GCUGCAUGGGCAGGAUAUGGGUCCAAAGCGCAAGUGCGCUUUGGUACAUGAGGAUCACCCAUGUCCCAGAAGGGCCCAAGCGGC [Inorgeesbi] (Eterna round: R96, puzzle: Same State NG 2) | 16.4 | 87.9 | 145 | – | – | –
4 | GCUGCGUUUAACGCCUACAUGAGGAUCACCCAUGUAUGUAGGCAGGAUAUCGUUUGCUUUGCAAACGAGAAGGGCUGUAGUAGC [salish99_SSNG3_R04_005] (Eterna round: R96, puzzle: Same State NG 3) | 41.6 | 85 | 73.8 | – | – | –
5 | GCUGGAAACCACAUGAGGAUCACCCAUGUUCCGGAAACGGCACAGGAUAUCUGUCCGAAAAGGUCAGAGAAGGGUGGAACCAGC [Fiskers NG3ss - 82] (Eterna round: R96, puzzle: Same State NG 3) | 221 | 350 | 393 | – | – | –
6 | GCUGGAACUCACAUGAGGAUCACCCAUGUUCCGGAAACGGCACAGGAUAUCUGUCCGAAAAGGUCAGAGAAGGGUGUAACCAGC [Fiskers NG3ss - 87] (Eterna round: R96, puzzle: Same State NG 3) | 137 | 51 | 88.8 | – | – | –
7 | GGAAACAAGAGAGGAUAUGCAGAGGAUCACCCUGUAGAAGGCUCCCUAGAGAGGAUAUGCAGAGGAUCACCCUGCAGAAGGCUC [pwkr ssNG DX.18] (Eterna round: R96, puzzle: Same State NG 1) | 227 | 27.7 | 89.1 | – | – | –
8 | GGAGAACAUGAGGAUCACCCAUGUGGAUGGGCGCUAGGAUAUGCGAGAGGGUGAAGAGAAGCAGAAGGAGUGGAUA [JR_SS1_Sub036] (Eterna round: R96, puzzle: Same State 1) | 130 | 96.6 | 147 | – | – | –
9 | GGAGAACAUGAGGAUCACCCAUGUGGAUGGGCGCUAGGAUAUGCGAGAGGGUGAAGAGAAGCAGAAGGAGUGGAUA [JR_SS1_Sub036] (puzzle: Same State 1) | – | – | – | 101 | 104 | 161
10 | GGAGCCGGCACCGAGGAUAUUCAUAUUAAAACAUGAGGAUCACCCAUGUAGGCCAGAAGGCUUUGGGAGAAGGCGGAUCGGCUCG [Xeonanis - 3] (Eterna round: R96, puzzle: Same State 2) | 22.1 | 148 | 568 | – | – | –
11 | GGAGCCGGCACCGAGGAUAUUCAUAUUAAAACAUGAGGAUCACCCAUGUAGGCCAGAAGGCUUUGGGAGAAGGCGGAUCGGCUCG [Xeonanis - 3] (puzzle: Same State 2) | – | – | – | 25.3 | 310 | 546
12 | GGAGCCGGCCUAGGAUAUUUCAUAAUUUAACAUGAGGAUCACCCAUGUAGGCCAGAAGGCCUUGGGAAGAAGGAGGUCGGCUCC [Loop Effect - U26,U27,U28] (Eterna round: R96, puzzle: Same State NG 2) | 17.4 | 53.6 | 76.9 | – | – | –
13 | GGAGCCGGCCUAGGAUAUUUCAUUAUUAAACAUGAGGAUCACCCAUGUAGGCCAGAAGGCCUUGGGAAGAAGGAGGUCGGCUCC [Loop Effect - U24,U26,U28] (Eterna round: R96, puzzle: Same State NG 2) | 17.1 | 49.6 | 68.5 | – | – | –
14 | GGCAAUAUCACAGGAUAUUGGAAAGGAAGUGUACAAGAAGGGUGAUAGUGCCUCAGCAACAUGAGGAUCACCCAUGUACUGAGC [PowerStrip SSNG 1.29] (Eterna round: R96, puzzle: Same State NG 1) | 121 | 43.6 | 113 | – | – | –
15 | GGCAGUCCGACACAGGAUAUGGGUAACGAAACAUGAGGAUCACCCAUGUGGAAACAUCGGGUUGCCUAGAAGGGUGGAAAGAUUG [Xeti] (Eterna round: R96, puzzle: Same State 2) | 32.4 | 71.6 | 124 | – | – | –
16 | GGCUAGGAUAUCUGCAGGAUCACCGCGGAGAAGGAGCUAAGCUAGGAUAUCCGCAGGAUCACCGCGGAGAAGGAGCAUAAUAUA [pwkr ssNG3 DX 2xF5 +2xFMN.15] (Eterna round: R96, puzzle: Same State NG 3) | 81.5 | 20.3 | 18.1 | – | – | –
17 | GGCUAGGAUAUCUGCAGGAUCACCGCGGAGAAGGAGCUAAGCUAGGAUAUCCGCAGGAUCACCGCGGAGAAGGAGCAUCAUCUC [pwkr ssNG3 DX 2xF5 +2xFMN.16] (Eterna round: R96, puzzle: Same State NG 3) | 135 | 123 | 429 | – | – | –
18 | GGUACUAUCACAGGAUAUGCUAUCCUUUGGGUAGCAGAAGGGUGGUACAUGAGGAUCACCCAUGUGGUGCCAGGGCGUGAGCCC [JL SSNG1 1.97] (Eterna round: R96, puzzle: Same State NG 1) | 200 | 67.9 | 318 | – | – | –
19 | GGUAGGUUACUACCAAACAUGAGGAUCACCCAUGUUAAUGGGAAGGAUAUGGUACCUAUUUGGUACCAGAAGGUCCAAAUAAUU [Mat - Same State NG 3 - JL Mod - D97] (Eterna round: R96, puzzle: Same State NG 3) | 73.2 | 261 | 596 | – | – | –
20 | GGUAGGUUACUACCAAACAUGAGGAUCACCCAUGUUGAUGGGAAGGAUAUGGUACCUUUUAGGUACCAGAAGGUCUAAUCGAUC [NGss mod of JL's mod of Fisker 4] (Eterna round: R96, puzzle: Same State NG 3) | 120 | 115 | 166 | – | – | –
